Measurements: PMC3902906

Experiments:
[1] = molecular target: CsoR (CsoRSl) wild type (Streptomyces lividans 1326) (UniProt D6EK73); test: ITC; conditions: ITC: 10 mM HEPES, 150 mM NaCl, pH 7.5, 25 C, 100 uM DNA into 10 uM CsoR tetramer, EMSA: same buffer, room temperature, 30 min, 6% PAGE in TBE, SEC: same buffer
[2] = molecular target: CsoR^Sl Q81A (copper sensitive operon repressor from Streptomyces lividans, Q81A mutant) (Streptomyces lividans 1326); test: SEC; analytical gel filtration column, retention volume of the purified mutant protein alone; data not shown
[3] = molecular target: CsoR^Sl R54A (copper sensitive operon repressor from Streptomyces lividans, R54A mutant) (Streptomyces lividans 1326); test: as above
[4] = molecular target: CsoR^Sl R57A (copper sensitive operon repressor from Streptomyces lividans, R57A mutant) (Streptomyces lividans 1326); test: as above
[5] = molecular target: CsoR^Sl R132A (copper sensitive operon repressor from Streptomyces lividans, R132A mutant) (Streptomyces lividans 1326); test: as above
[6] = molecular target: CsoR^Sl R129A (copper sensitive operon repressor from Streptomyces lividans, R129A mutant) (Streptomyces lividans 1326); test: as above

| Substance | Kd [1] | other results |
| --- | --- | --- |
| TACCCCCTAGGGGTAT (double strand) [copZA1-CON] | 971 nM |  |
| GCCTTTATACCCCCTAGGGGTAAGGTGGG (double strand) [copZA2-EXT] | 57 nM |  |
| CGGACAAATACCCCTGGTGGGTATATATGG (double strand) [csoR-EXT] | 74 nM |  |
| TATACCCCCTAGGGGTA (double strand) [copZA2-CON] | 107 nM |  |
| CsoR^Sl Q81A (copper sensitive operon repressor from Streptomyces lividans, Q81A mutant) (natural protein) |  | stoichiometry N [2]: 4 |
| CsoR^Sl R54A (copper sensitive operon repressor from Streptomyces lividans, R54A mutant) (natural protein) |  | stoichiometry N [3]: 4 |
| CsoR^Sl R57A (copper sensitive operon repressor from Streptomyces lividans, R57A mutant) (natural protein) |  | stoichiometry N [4]: 4 |
| CsoR^Sl R132A (copper sensitive operon repressor from Streptomyces lividans, R132A mutant) (natural protein) |  | stoichiometry N [5]: 4 |
| CsoR^Sl R129A (copper sensitive operon repressor from Streptomyces lividans, R129A mutant) (natural protein) |  | stoichiometry N [6]: 4 |
| CGTTGGATACCCCCTAGGGGTATACATGG (double strand) [copZA1-GTA up] | 96 nM |  |
| ATACCCCTGGTGGGTATAT (double strand) [csoR-CON] | 120 nM |  |
| CGTTGGGTACCCCCTAGGGGTATACATGG (double strand) [copZA1-EXT] |  | Kd ([1]; apo, reverse titration (protein into DNA), N 0.86): 112 nM |
| CGTTGGGTACCCCCTAGGGGTATATATGG (double strand) [copZA1-GTA down] | 87 nM |  |
